Key:
[1] = molecular target: T1, GPR64 protein (SEQ ID NO:2) (UniProt Q8IZP9 38-1017); experiment: FACS
T1 chain: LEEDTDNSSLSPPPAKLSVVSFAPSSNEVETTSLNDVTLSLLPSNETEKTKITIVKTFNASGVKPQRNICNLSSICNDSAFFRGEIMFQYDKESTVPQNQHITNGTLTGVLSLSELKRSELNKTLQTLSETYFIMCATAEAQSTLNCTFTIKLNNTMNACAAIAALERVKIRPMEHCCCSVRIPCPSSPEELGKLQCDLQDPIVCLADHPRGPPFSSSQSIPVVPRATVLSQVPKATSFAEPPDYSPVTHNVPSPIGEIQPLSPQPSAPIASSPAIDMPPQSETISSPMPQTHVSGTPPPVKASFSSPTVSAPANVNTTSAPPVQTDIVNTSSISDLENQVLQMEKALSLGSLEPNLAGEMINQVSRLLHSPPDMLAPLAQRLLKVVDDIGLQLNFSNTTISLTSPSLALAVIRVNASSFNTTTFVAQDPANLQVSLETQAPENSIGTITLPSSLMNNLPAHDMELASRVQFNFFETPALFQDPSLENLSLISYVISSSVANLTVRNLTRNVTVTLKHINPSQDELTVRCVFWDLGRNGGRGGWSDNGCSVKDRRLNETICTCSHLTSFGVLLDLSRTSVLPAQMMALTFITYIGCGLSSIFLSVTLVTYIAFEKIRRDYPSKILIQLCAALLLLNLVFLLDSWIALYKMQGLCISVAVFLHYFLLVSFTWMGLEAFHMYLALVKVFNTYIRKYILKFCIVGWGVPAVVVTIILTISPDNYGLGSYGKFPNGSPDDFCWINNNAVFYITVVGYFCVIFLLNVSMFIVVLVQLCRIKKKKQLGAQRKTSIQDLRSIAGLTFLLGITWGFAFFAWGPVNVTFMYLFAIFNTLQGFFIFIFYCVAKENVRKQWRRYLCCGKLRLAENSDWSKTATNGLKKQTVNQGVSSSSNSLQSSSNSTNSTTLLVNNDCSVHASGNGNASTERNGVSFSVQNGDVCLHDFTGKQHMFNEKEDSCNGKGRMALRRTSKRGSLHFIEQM

[2] = molecular target: T2, GPR64 protein (SEQ ID NO:2) (human, UniProt Q8IZP9 38-1017); experiment: competitive FACS on H460 cells, confirmed by Biacore
T2 construct: Endogenous GPR64 on human tumor cells (NCI-H460) or in tissue sections; also called Ov1; HE6
Protocol: Epitope mapping was performed by competitive FACS assay. Briefly, H460 cells were incubated with 25 ug/ml unlabeled antibody for 1 hr on ice, at which time various amounts of FITC labeled antibody was added. After 30 additional minutes, cells were washed one time and fluorescence was measured by flow cytometry. All data was confirmed by Biacore.

[3] = molecular target: T3, human GPR64-Fc fusion protein (human, UniProt Q8IZP9 38-591); experiment: affinity screen of Example 4 (Biacore/FACS); form of the target not restated
T3 construct: Immunogen, and the analyte in the Biacore kinetics

B1: GPR64-18 (antibody, V domains shown)
VH: QVSLKESGPGILQPSQTLSLTCSFSGFSLSTSGMGVSWIRQPSGKGLEWLAHIYWDDDKRYNPSLKSRLTISKDTSSNLVFLKITSVDTADTATYYCARREVRRDYYAMDYWGQGTSVTVSS
VL: SIVMTQTPKFLLVSAGDRITIACRASQSVSNDVAWYQQKPGQSPKLLINYTSNRYTGVPDRFTGSGYGTDFTFTISTVQAEDLAVYFCQQAYSSPWTFGGGTKLEIK
notes: Mouse monoclonal antibody raised against GPR64-Fc; also called GPR64-18 antibody
EC50 [1]: ~4 nM | binding result [2]: binds | binding result [3]: binds
